Data published in paper PMC7854634, “Cryo-EM of mammalian PA28αβ-iCP immunoproteasome reveals a distinct mechanism of proteasome activation by PA28αβ” (Nature Communications, 2021).

B1: human PA28α (natural protein)
chain: MAMLRVQPEAQAKVDVFREDLCTKTENLLGSYFPKKISELDAFLKEPALNEANLSNLKAPLDIPVPDPVKEKEKEERKKQQEKEDKDEKKKGEDEDKGPPCGPVNCNEKIVVLLQRLKPEIKDVIEQLNLVTTWLQLQIPRIEDGNNFGVAVQEKVFELMTSLHTKLEGFHTQISKYFSERGDAVTKAAKQPHVGDYRQLVHELDEAEYRDIRLMVMEIRNAYAVLYDIILKNFEKLKKPRGETKGMIY
notes: C-terminal residue printed as Y249; Stood in the experiments as a subunit of m1; also called PA28 α1, α2, α3, α4 (its copies in the heptamer); source: E. coli BL21 (DE3), co-expressed with PA28β, purified as the PA28αβ heteroheptamer
B2: human PA28β (natural protein)
chain: not shown
notes: C-terminal residue printed as Y239; Stood in the experiments as a subunit of m1; also called PA28 β1, β2, β3 (its copies in the heptamer); source: E. coli BL21 (DE3), co-expressed with PA28α, purified as the PA28αβ heteroheptamer
B3: bovine iCP subunit α4 (natural protein)
chain: not shown
notes: 20S proteasome subunit α4, bovine; Stood in the experiments as a subunit of m2; source: purified from bovine spleen as a subunit of the iCP
B4: bovine iCP subunit α2 (natural protein, UniProt Q3T0Y5 1-234, looked up)
chain: MAERGYSFSLTTFSPSGKLVQIEYALAAVAGGAPSVGIKAANGVVLATEKKQKSILYDERSVHKVEPITKHIGLVYSGMGPDYRVLVHRARKLAQQYYLVYQEPIPTAQLVQRVASVMQEYTQSGGVRPFGVSLLICGWNEGRPYLFQSDPSGAYFAWKATAMGKNYVNGKTFLEKRYNEDLELEDAIHTAILTLKESFEGQMTEDNIEVGICNEAGFRRLTPTEVKDYLAAIA
notes: 20S proteasome subunit α2, bovine; Stood in the experiments as a subunit of m2; source: purified from bovine spleen as a subunit of the iCP
B5: bovine iCP subunit α5 (natural protein, UniProt Q5E987 1-241, looked up)
chain: MFLTRSEYDRGVNTFSPEGRLFQVEYAIEAIKLGSTAIGIQTSEGVCLAVEKRITSPLMEPSSIEKIVEIDAHIGCAMSGLIADAKTLIDKARVETQNHWFTYNETMTVESVTQAVSNLALQFGEEDADPGAMSRPFGVALLFGGVDEKGPQLFHMDPSGTFVQCDARAIGSASEGAQSSLQEVYHKSMTLKEAIKSSLIILKQVMEEKLNATNIELATVQPGQNFHMFTKEELEEVIKDI
notes: 20S proteasome subunit α5, bovine; Stood in the experiments as a subunit of m2; source: purified from bovine spleen as a subunit of the iCP

Key:
Details in all cases: both partners purified
bovine iCP subunit α3 = biological target: T1, bovine iCP subunit α3 (bovine, UniProt Q3ZCK9 1-261); assay: cryo-EM structure; PA28αβ and iCP mixed at a molar ratio of 10:1, 37 °C 30 min, cross-linked with 0.1% glutaraldehyde at 4 °C for 2 h, glycerol gradient; single-capped (4.1 Å) and double-capped (4.2 Å) complexes and free iCP (3.3 Å) from one data set
T1 construct: 20S proteasome subunit α3, bovine; Stood in the experiments as a subunit of m2; source: purified from bovine spleen as a subunit of the iCP
T1 sequence (Q3ZCK9 whole entry): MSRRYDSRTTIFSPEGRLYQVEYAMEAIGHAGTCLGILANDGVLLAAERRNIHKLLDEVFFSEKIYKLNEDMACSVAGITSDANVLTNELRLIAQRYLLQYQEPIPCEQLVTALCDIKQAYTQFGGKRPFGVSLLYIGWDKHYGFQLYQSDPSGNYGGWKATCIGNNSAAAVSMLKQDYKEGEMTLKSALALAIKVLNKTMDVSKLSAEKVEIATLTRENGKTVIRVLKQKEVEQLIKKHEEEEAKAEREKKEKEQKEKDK

bovine iCP subunit α6 = biological target: T2, bovine iCP subunit α6 (bovine, UniProt Q3T0X5 1-263); assay: cross-linking; XL-MS: PA28αβ and iCP mixed 10:1, 37 °C 30 min, 0.25 mM BS3 on ice 2 h, glycerol gradient, trypsin digest, pLink2; E-value threshold 1.00E-02
T2 construct: 20S proteasome subunit α6, bovine; Stood in the experiments as a subunit of m2; source: purified from bovine spleen as a subunit of the iCP
T2 sequence (Q3T0X5 whole entry): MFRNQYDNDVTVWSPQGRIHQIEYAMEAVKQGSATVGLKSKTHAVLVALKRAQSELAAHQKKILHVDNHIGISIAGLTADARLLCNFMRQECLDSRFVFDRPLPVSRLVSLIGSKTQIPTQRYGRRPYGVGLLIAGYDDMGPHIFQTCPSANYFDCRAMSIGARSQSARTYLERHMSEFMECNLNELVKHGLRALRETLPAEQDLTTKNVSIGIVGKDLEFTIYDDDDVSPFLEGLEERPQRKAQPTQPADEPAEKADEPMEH

bovine iCP subunit α4 = biological target: B3; assay: cryo-EM structure; PA28αβ and iCP mixed at a molar ratio of 10:1, 37 °C 30 min, cross-linked with 0.1% glutaraldehyde at 4 °C for 2 h, glycerol gradient; single-capped (4.1 Å) and double-capped (4.2 Å) complexes and free iCP (3.3 Å) from one data set
Chain of bovine iCP subunit α4 (Q3ZBG0 whole entry): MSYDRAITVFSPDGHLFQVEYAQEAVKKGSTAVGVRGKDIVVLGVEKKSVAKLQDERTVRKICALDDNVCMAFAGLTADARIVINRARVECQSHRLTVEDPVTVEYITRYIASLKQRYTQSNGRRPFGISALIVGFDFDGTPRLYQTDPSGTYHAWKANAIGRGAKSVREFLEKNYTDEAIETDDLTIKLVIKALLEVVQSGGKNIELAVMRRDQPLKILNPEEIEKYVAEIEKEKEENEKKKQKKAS

human PA28α = biological target: B1; assay: as above
human PA28β = biological target: B2; assay: as above

binding result (bovine iCP subunit α3) | binding result (human PA28α) | Binder | further results
binds | – | B1 | –
binds | – | B2 | binding result (bovine iCP subunit α6): binds; binding result (bovine iCP subunit α4): binds
– | binds | B3 | –
– | binds | B4 | binding result (human PA28β): binds
– | binds | B5 | –
